The results in this text go back to publication doi:10.64898/2025.12.06.692711, “Archaeal histone HTkC hypercompacts DNA”.

The data set has as its target T1, HTkC (Thermococcus kodakarensis, UniProt Q5JDW7).
T1 sequence: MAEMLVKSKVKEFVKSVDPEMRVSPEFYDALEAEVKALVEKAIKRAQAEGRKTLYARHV
Description: X-ray crystallography; 1.95 A; EMSA: 50 mM Tris-HCl pH 7.0, 75 mM KCl, 14.5% glycerol, room temperature 30 min, gel in 0.5x TBE at 4 C; TPM: 50 mM Tris pH 7.0, 75 mM KCl. Particulars: protein: recombinant; chain copies: 4; blunt. On the technique in general: A gel shift assay detects complexes by their altered migration in electrophoresis.

B1: 30 bp-GC50 (dsDNA)
DNA 1: TTAAAGCCCGTTAAAGCCCGTTAAAGCCCG
DNA 2: CGGGCTTTAACGGGCTTTAACGGGCTTTAA
On to B1, for which the binding result is listed as “binds”.
